From patent US20190284262A1 (Memorial Sloan Kettering, published 2019)

B1: (FoxP2)_#12 (scFv)
scFv (VL-linker-VH-His/HA tag): SYELTQPPSVSVAPGKTARITCGGNNIGSKSVHWYQQKPGQAPVLVIYYDSDRPSGIPERFSGSNSGNTATLTISRVEAGDEADYYCQVWDSSSDHRVFGGGTKVTVLGSRGGGGSGGGGSGGGGSLEMAEVQLVESGGGLVQPGGSLRLSCAASGFTFSSYWMNWVRQAPGKGLEWVANIKQDGSEKNYVDSVKGRFTISRDNAKNSLYLQMNSLRGEDTAVYYCARYGGGPYDSWGQGTLVTVSSTSGQAGQHHHHHHGAYPYDVPDYAS
notes: also called EXT019-12 scFv phage clone
B2: EXT017-9 scFv phage clone (scFv)
scFv: QSALTQPASASGSPGQSVTISCTGTSSDVGGYNYVSWYQQHPGKAPKLMIYEVSKRPSGVPDRFSGSKSGNTASLTVSGLQAEDEADYYCSSYAGSNNVVFGGGTKLTVLGSRGGGGSGGGGSGGGGSLEMAEVQLVQSGAEVKKPGASVKISCKASRYTFTNYYIHWVRQAPGQGLEWMGIINPSGGSTTYPQNFQGRLTMTRDTSTSTVYMELSSLRSEDTAMYYCARGWSGYDPGDFWGQGTLVTVSSTSGQAGQHHHHHHGAYPYDVPDYAS
notes: also called phage clone #9
B3: EXT017-26 scFv phage clone (scFv)
scFv: SYVLTQPPSVSVAPGQTARITCGGTDIRRKTVHWYQQKPGLAPVLVLYDDSDRPSGIPERFSGSNSGNTATLTISRVEGGDEADYYCQVWDNDNDHYVFGPGTKVTVLGSRGGGGSGGGGSGGGGSLEMAEVQLVQSGAEVKKPGASVKVSCKASGYTFTNYYIHWVRQTPGEGLEWMGIIRPSGGNTNYAQKFQGRVTMTRDTSTRTVYMELSSLRSEDTAVYYCARSWDTFSDEWGQGTLVTVSSTSGQAGQHHHHHHGAYPYDVPDYAS
notes: also called phage clone #26
B4: (FoxP2)_#15 (scFv)
scFv (VL-linker-VH-His/HA tag): SYVLTQPPSVSVAPGETASITCGANNIGSESVHWYQQKSGQAPVLVIYYDSDRPSGIPERFSGSNSDNTATLTISRVEAGDEADYYCQVWDHINDHYVFGSGTKVTVLGSRGGGGSGGGGSGGGGSLEMAEVQLVESGGGLAQPGGSLRLSCAASGFSFSNYAMSWVRQAPGTGLEWVAGISGRGGSIHYADSVKGRFTISRDNSQSTVFLQMNNLGAEDTAIYYCAKSSEDYYFYHMDAWGIGTTVTVSSTSGQAGQHHHHHHGAYPYDVPDYAS
notes: also called EXT019-15 scFv phage clone
B5: (FoxP2)_#13 (scFv)
scFv (VL-linker-VH-His/HA tag): LPVLTQPPSVSVAPGKTARITCGGNNIGSKSVHWYQQKPGQAPVLVIYYDSDRPSGIPERFSGSNSGNTATLTISRVEAGDEADYYCQVWDSSSAYVFGTGTKVTVLGSRGGGGSGGGGSGGGGSLEMAQVQLQQSGPGLVKPSQTLSLTCAISGDSVSSNSAAWNWIRQSPSRGLEWLGRTYYRSKWYNDYAVSVKSRITINPDTSKNQFSLQLNSVTPEDTAVYYCARYYSTSLDSWGQGTLVTVSSTSGQAGQHHHHHHGAYPYDVPDYAS
notes: also called EXT019-13 scFv phage clone

What was measured:
[1] = molecular target: T1, HLA-A*02:01 on T2 cells alone (no peptide added) (human); assay: flow cytometry, phage on T2 without peptide
T1 construct: TAP-deficient T2 cells without pulsed peptide; negative control target, and the HLA molecule whose stabilisation by peptides is read in the T2 stabilization assay; also called HLA-A*02 molecule; HLA-A2 molecule

[2] = molecular target: T2, R3 (RHAMM-R3) peptide/HLA-A*02:01 complex on T2 cells (human); assay: flow cytometry, phage on T2 + R3 peptide; secondary only 126, unstained 94.4
T2 construct: Control target of the phage staining of T2 cells; also called T2 cells pulsed with R3 peptide; RHAMM 3 (R3)

[3] = molecular target: T1, HLA-A*02:01 on T2 cells alone (no …); assay: flow cytometry, phage on T2 without peptide; secondary only 118, unstained 95.2
[4] = molecular target: T3, Foxp3-7 peptide/HLA-A*02:01 complex on the cell surface (human); assay: flow cytometry, phage on T2 + Foxp3-7 peptide; secondary only 116, unstained 93.8
T3 construct: also called Foxp3-7/HLA-A2 complex

[5] = molecular target: T1, HLA-A*02:01 on T2 cells alone (no …); assay: flow cytometry, phage on T2 without peptide; secondary only 100, unstained 99.5
[6] = molecular target: T1, HLA-A*02:01 on T2 cells alone (no …); assay: flow cytometry, phage on T2 cells
[7] = molecular target: T1, HLA-A*02:01 on T2 cells alone (no …); assay: flow cytometry, phage on T2 without peptide; secondary only 121, unstained 106
[8] = molecular target: T2, R3 (RHAMM-R3) peptide/HLA-A*02:01 …; assay: flow cytometry, phage on T2 + R3 peptide; secondary only 123, unstained 99.8
T2+EW [9] = molecular target: T4, T2+EW (Homo sapiens, UniProt A*02:01); assay: flow cytometry, phage on T2 + EW peptide; secondary only 113, unstained 94.7
T4 construct: on the surface of T2 cells; irrelevant control peptide; also called EW peptide/HLA-A*02:01 complex on T2 cells; T2 pulsed with EW peptide

[10] = molecular target: T3, Foxp3-7 peptide/HLA-A*02:01 complex on …; assay: flow cytometry, phage on T2 + Foxp3-7 peptide; secondary only 133, unstained 103
[11] = molecular target: T1, HLA-A*02:01 on T2 cells alone (no …); assay: flow cytometry, phage on T2 without peptide; secondary only 320, unstained 91.4
T2+EW [12] = molecular target: T4, T2+EW; assay: flow cytometry, phage on T2 + EW peptide; secondary only 310, unstained 93
[13] = molecular target: T3, Foxp3-7 peptide/HLA-A*02:01 complex on …; assay: flow cytometry, phage on T2 + Foxp3-7 peptide; secondary only 318, unstained 95.8

| Binder | binding result [1] | Median:FITC-A [2] | Median:FITC-A [3] | Median:FITC-A [4] | Median:FITC-A [5] | binding result [6] | Median:FITC-A [7] | Median:FITC-A [8] | Median:FITC-A (T2+EW [9]) | Median:FITC-A [10] | Median:FITC-A [11] | Median:FITC-A (T2+EW [12]) | Median:FITC-A [13] |
| --- | --- | --- | --- | --- | --- | --- | --- | --- | --- | --- | --- | --- | --- |
| B1 | no binding | 151 | 151 | – | – | – | – | – | – | – | – | – | – |
| B2 | – | – | – | 287 | 149 | no binding | 150 | 144 | 151 | 1730 | – | – | – |
| B3 | – | – | – | 410 | – | no binding | 146 | 144 | – | – | 385 | 375 | 1880 |
| B4 | no binding | 145 | 145 | – | – | – | – | – | – | – | – | – | – |
| B5 | no binding | 141 | 143 | – | – | – | – | – | – | – | – | – | – |
